The assay addresses T1, mouse VISTA-Fc (mouse) (UniProt Q9D659).
T1 sequence (looked up): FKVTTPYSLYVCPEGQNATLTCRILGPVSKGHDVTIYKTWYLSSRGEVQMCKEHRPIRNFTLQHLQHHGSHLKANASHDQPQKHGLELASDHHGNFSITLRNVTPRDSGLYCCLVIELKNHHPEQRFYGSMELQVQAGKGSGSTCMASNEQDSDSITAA
Briefly: monoclonal scFv phage ELISA, plate coated with 1 ug/ml VISTA-Fc, anti-M13-HRP.

B1: 3C5 monoclonal scFv phage (scFv, V domains shown)
VH: QVQLVQSGAEVKKPGASVKLSCKASGYTFSSYWMHWVRQAPGQRLEWMGEINPGNGHTNYNEKFKSRVTITVDKSASTAYMELSSLRSEDTAVYYCAKDIAYYDFWSGDAFDLWGQGTMVTVSS
VL: SYELTQPLSVSVSPGQTASITCSGDKLGNKYASWYQQKPGQSPVLVIYQDNKRPSGIPERFSGSNSGNTATLTISGTQATDEADYYCQTWDRSTGVFGTGTKVTVLG
B1 came in with an OD of 0.106 OD.

B2: 1A12 monoclonal scFv phage (scFv, V domains shown)
VH: QMQLVESGGGLVEPGRSLRLSCTTSGFSFHDYTMYWVRQVPGKGLEWVSLISWDGTITFYADPVRGRFTISRDNSKNSLYLQMNSLRAEDTAVYYCAKEDRYDYYSGAFDIWGQGTVVTVSS
VL: QSALTQPRSVSGSPGQSVTISCTGTSSDVGGYDYVSWYQQHPGKAPKLILNDVNKRPSGVPDRFSGSKSGNTASLTISGLQPDDEADYYCSSFAGSNTLRVFGGGTKLTVLG
Turning to B2, the OD was 0.08 OD.
